Where “and” joins values, the source holds several entries; their conditions need not be identical. Equal entries are not always repeated.
Experiments:
[1] = biological target: Scolopendra viridicornis haemocyanin (Scolopendra viridicornis); test: negative-stain transmission electron microscopy; first SEC peak in TRIS stabilizing buffer, stained with 2% uranyl acetate, Jeol 1400Plus
[2] = biological target: Scolopendra viridicornis haemocyanin (Scolopendra viridicornis); test: SEC; plasma (supernatant of haemolymph, 3300g, 30 min, 4°C) on Superose 6 3.2/300, isocratic Tris buffer with 5 mM CaCl2 and 5 mM MgCl2, pH 8.2 or 8.0 (methods), 0.1 ml min^-1; oligomer told from the retention volume
[3] = biological target: Scolopendra subspinipes subspinipes haemocyanin (Scolopendra subspinipes subspinipes); test: negative-stain transmission electron microscopy; Hc pellet from ultracentrifugation, 26-30 µg ml^-1, in 50 mM MES (pH 6.2, 6.6) or 50 mM TRIS-HCl (pH 7.2-8.5) with 5 mM CaCl2 and 5 mM MgCl2; particles counted as 3 × 6-mer or 1 × 6-mer
[4] = biological target: Scolopendra subspinipes subspinipes haemocyanin (Scolopendra subspinipes subspinipes); test: negative-stain transmission electron microscopy; first SEC peak in TRIS stabilizing buffer, stained with 2% uranyl acetate, Jeol 1400Plus
[5] = biological target: Scolopendra subspinipes subspinipes haemocyanin (Scolopendra subspinipes subspinipes); test: SEC; plasma (supernatant of haemolymph, 3300g, 30 min, 4°C) on Superose 6 3.2/300, isocratic Tris buffer with 5 mM CaCl2 and 5 mM MgCl2, pH 8.2 or 8.0 (methods), 0.1 ml min^-1; oligomer told from the retention volume
[6] = biological target: Scolopendra subspinipes subspinipes haemocyanin (Scolopendra subspinipes subspinipes); test: negative-stain transmission electron microscopy; first SEC peak in TRIS stabilizing buffer, stained with 2% uranyl acetate, Jeol 1400Plus; remark: listed apart in the source

| Substance | stoichiometry N [1] | stoichiometry N [2] | stoichiometry N [3] | stoichiometry N [4] | stoichiometry N [5] | stoichiometry N [6] |
| --- | --- | --- | --- | --- | --- | --- |
| Scolopendra viridicornis haemocyanin (complex) | 36 and 18 | 36 |  |  |  |  |
| Scolopendra subspinipes subspinipes haemocyanin (complex) |  |  | 18 and 6 | 18 | 18 | 6 |

Reference: article PMC7241075
